Source: PMC10285447

Assays:
[1] = biological target: P5C3-IgM-P (pentameric P5C3 IgM) (human) (UniProt P01591); experiment: ELISA; […] (from 500 ng/mL with P5C3, […]
[2] = biological target: H4-IgM-P (pentameric H4 IgM) (human) (UniProt P01591); experiment: ELISA

SARS-CoV-2 spike protein RBD (Wuhan strain), recombinant (from UniProt P0DTC2 319-541) (domain or fragment)
EC50 [1]: 0.016 nM | EC50 [2]: 0.169 nM
